Substitutions are numbered along the chain they refer to. Names may count otherwise.

In assay [1] the target is T1, human IL-10R1 chain coupled to agarose beads (human, UniProt Q13651 22-235).
T1 construct: also called HuIL-10R1 coupled beads; human IL-10R1 beads
T1 sequence: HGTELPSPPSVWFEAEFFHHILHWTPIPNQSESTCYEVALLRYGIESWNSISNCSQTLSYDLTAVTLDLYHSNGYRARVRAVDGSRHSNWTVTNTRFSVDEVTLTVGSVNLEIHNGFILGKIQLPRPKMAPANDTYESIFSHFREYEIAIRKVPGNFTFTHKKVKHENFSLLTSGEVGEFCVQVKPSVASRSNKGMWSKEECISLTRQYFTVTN
Kind of assay: pull-down of 500 µL Drosophila medium with 15 µL HuIL-10R1-coupled agarose beads, Coomassie-stained SDS-PAGE.

The target in assay [2] is T2, human IL-10R1 chain on transfected TF-1 cells (TF-1/HuIL-10R1) (human, UniProt Q13651 22-578).
T2 sequence: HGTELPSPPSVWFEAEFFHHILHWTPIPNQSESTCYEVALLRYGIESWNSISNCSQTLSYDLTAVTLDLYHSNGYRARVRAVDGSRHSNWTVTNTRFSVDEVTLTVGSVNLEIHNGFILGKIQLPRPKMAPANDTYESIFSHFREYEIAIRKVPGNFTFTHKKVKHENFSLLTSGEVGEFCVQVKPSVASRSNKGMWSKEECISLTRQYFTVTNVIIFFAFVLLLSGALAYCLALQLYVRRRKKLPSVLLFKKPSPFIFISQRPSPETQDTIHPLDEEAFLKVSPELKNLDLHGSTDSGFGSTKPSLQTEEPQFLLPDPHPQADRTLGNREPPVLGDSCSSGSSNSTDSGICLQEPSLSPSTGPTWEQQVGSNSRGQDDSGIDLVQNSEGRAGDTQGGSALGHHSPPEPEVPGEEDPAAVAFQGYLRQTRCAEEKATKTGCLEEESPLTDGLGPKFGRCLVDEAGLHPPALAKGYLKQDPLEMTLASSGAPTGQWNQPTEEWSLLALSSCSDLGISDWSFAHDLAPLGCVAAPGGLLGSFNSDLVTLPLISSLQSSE
Kind of assay: cell-based or functional assay.

B1: H6FXa-rhcmvIL-10 Arg-34Glu point mutant (R63E of SEQ ID NO:1) (ligand)
chain: PPHHHHHHSDIEGRAHDHEHKEVPPACDPVHGNLAGIFKELRATYASIEEGLQKKDTVYYTSLFNDRVLHEMLSPMGCRVTNELMEHYLDGVLPRASHLDYDNSTLNGLHVFASSMQALYQHMLKCPALACTGKTPAWMYFLEVEHKLNPWRGTAKAAAEADLLLNYLETFLLQF
notes: Tested as Drosophila cell supernatant; Its exact end in pAHF cannot be seen because the underlining is lost; also called R34E; Lys-34Glu
For the molecule B1, the binding result in assay [1] is “no binding”.

B2: H6FXa-rhcmvIL-10 Gln-38Arg point mutant (Q67R of SEQ ID NO:1) (ligand)
chain: B1 chain with E49R, Q53R
notes: Tested as Drosophila cell supernatant; also called Q38R
Turning to B2, the “proliferation of TF-1/HuIL-10R1 cells” value in assay [2] was ~100 fold reduction in activity. Besides, in assay [1], the binding result was “no binding”.

B3: H6FXa-rhcmvIL-10 Asp-144His point mutant (D176H of SEQ ID NO:1) (ligand)
chain: B1 chain with E49R, D162H
notes: Tested as Drosophila cell supernatant; also called D144H
In the case of B3, the “proliferation of TF-1/HuIL-10R1 cells” value in assay [2] is ~300 fold reduction in activity. Also, in assay [1], the binding result was “no binding”.

The record behind these values is patent US20140099299A1 (UAB RESEARCH FOUNDATION, published 2014).
